The values that follow come from patent CN116789813A.

The assay deals with 突变型金黄色葡萄球菌α-溶血素(mHla), Hla(H35L) (Staphylococcus aureus (strain MRSA 252)). Briefly: ELISA, mHla coated at 2μg/mL, anti-human IgG Fab-HRP detection. (In general: An ELISA detects its analyte on a solid surface through an enzyme-linked reagent.)

B1: 全人源Hla单克隆抗体Hla-38 (antibody, V domains shown)
VH: QVQLLESGGGVVQPGRSLRLSCIVSGFDLNSFAMHWVRQPPGKGLEWVAVIWHDGSERFYAASVKGRFTISRDTSRNTLFLQMNSLRVEDTAVYYCAKSGDYYENSGYFGSWGQGALVTVSS
VL: ELVLTQSPATLSVSPGERATLSCRASQSVGNDLAWYQQKPGQAPRLLIYGASTRATGIPARFSGSGFGTEFTLTISSLQSEDFAVYYCQQYNNWWTFGQGTKVDIK
As a reminder, the EC50 is the midpoint of the concentration-response curve. Lower therefore signals an effect from little substance. As for B1, the EC50 came out at 0.849 µg/mL.
